Reference: patent US10494415B2, “Insulin-like growth factor 2 (IGF2) binding agents” (Cancer Research Technology Limited, priority 2015, dated 2019)
Substitutions are numbered along the chain they refer to. Numbers in names are those of the source.

B1: AB3: IGF2R domain 11 with AB loop mutations E1544K, K1545S, L1547V (YSKSGV) (protein)
chain: MKSNEHDDCQVTNPSTGHLFDLSSLSGRAGFTAAYSKSGVVYMSICGENENCPPGVGACFGQTRISVGKANKRLRYVDQVLQLVYKDGSPCPSKSGLSYKSVISFVCRPEAGPTNRPMLISLDKQTCTLFFSWHTPLACEQATECSV
B2: WT: wild-type human IGF2R domain 11 (residues 1511-1650), AB loop YSEKGL (protein)
chain: B1 chain with K37E, S38K, V40L
B3: AB5: IGF2R domain 11 with five AB loop mutations S1543A, E1544K, K1545G, G1546W, L1547G (YAKGWG) (protein)
chain: B1 chain with S36A, S38G, G39W, V40G
B4: AB5 Q1569R P1597H G1603K: domain 11 AB5 + Q1569R, P1597H, G1603K (protein)
chain: B1 chain with S36A, S38G, G39W, V40G, Q62R, P90H, G96K
B5: AB5 Q1569R P1597H K1631W: domain 11 AB5 + Q1569R, P1597H, K1631W (protein)
chain: B1 chain with S36A, S38G, G39W, V40G, Q62R, P90H, K124W
B6: AB5 Q1569R P1597H S1602H G1603K: domain 11 AB5 + Q1569R, P1597H, S1602H, G1603K (protein)
chain: B1 chain with S36A, S38G, G39W, V40G, Q62R, P90H, S95H, G96K
B7: AB5 Q1569R P1597K S1602H G1603K: domain 11 AB5 + Q1569R, P1597K, S1602H, G1603K (protein)
chain: B1 chain with S36A, S38G, G39W, V40G, Q62R, P90K, S95H, G96K

Legend:
[1] = tested on: Ewing sarcoma cell line (SKNMC); assay: Synthetic lethality hit validation dose response curves; format: cell-based; conditions: Homo sapiens, SK-N-MC
Experimental: For synthetic lethality hit validation, fresh stocks of the […] drugs selected as hits were obtained (pictilisib, SYNkinase and PF-04691502, Cayman Chemical). The interaction of the selected drugs and IGF2-TRAP were evaluated by Q-value calculated by the formula Q=FD+T/FD+(1−FD)FT, where FD+T represents the fraction affected by treatment with the drug plus IGF2-TRAP compared with the untreated control group, FD represents the fraction affected by the drug alone, and FT represents the fraction affected by the IGF2-TRAP alone. A value of Q>1.15 indicates a synergistic effect, Q<0.85 indicates an antagonistic effect, and Q between 0.85 and 1.15 indicates an additive effect.

IGF2 [2] = molecular target: T1, IGF2 (Homo sapiens, UniProt P01344); conditions: background, literature references; cited from earlier work
T1 sequence (P01344 25-91): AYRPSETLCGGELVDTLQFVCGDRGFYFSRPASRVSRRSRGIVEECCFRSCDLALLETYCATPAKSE

IGF2 [3] = molecular target: T1, IGF2; assay: SPR (Biacore T200) of recombinant IGF2R domain 11 mutants on immobilised biotinylated IGF2; format: binding; set-up: purchased GroPep
How it was run: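 Biotinylated IGF2 (or IGF1) captured on streptavidin chip; domain 11 mutants (E. coli or P. pastoris, AB5 background) injected at 25 °C, 40 μL/min, in HBS-EP pH 7.4 or MES-EP pH 6.5. kon/koff from 1:1 fit; KD as mean of 2-5 repeats.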

IGF1 = IGF1 (Homo sapiens, UniProt P05019); assay: SPR of domain 11 mutants on immobilised biotinylated IGF1 (specificity); format: binding
IGF1, sequence (P05019 49-118): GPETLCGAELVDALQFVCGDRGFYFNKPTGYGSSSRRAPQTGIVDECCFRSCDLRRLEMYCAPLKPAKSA
Excerpt: Surface plasmon resonance (SPR) binding analysis of recombinant M6P/IGF2R domain 11 mutants interaction with IGF2. Kon indicates association (on) rate; koff, dissociation (off) rate; RU, response units. Binding to IGF2 assessed with BIAcore T200 using purified biotinylated IGF2 and IGF1 on a streptavidin biosensor chip. Recombinant proteins were expressed either in E. coli and/or P. pastoris. All the mutants in the FG and CD loops are on the domain 11^AB5 background for the AB loop unless otherwise stated. All experiments were carried out at 25° C. in HBS-EP buffer (pH 7.4), were repeated 2-5 times on two independent BIAcore chips. nd=not determined. Data for KD expressed as mean of each experiment, and means of kon and koff are shown.
Final kinetic analysis of mutants by SPR was conducted using a Biacore T200 biosensor at 25° C. in either HBS-EP (10 mM HEPES pH 7.4, 150 mM NaCl, 3 mM EDTA, and 0.005% (v/v) surfactant P20) or MES-EP (20 mM MES pH 6.5, 150 mM NaCl, 3 mM EDTA, and 0.005% (v/v) surfactant P20) at a flow-rate of 40 μL min^−1. […] This interaction was also analysed by immobilizing the Fc-domain 11^AB5 and Fc-domain 11^AB5-RHH (or Fc-domain 11^I1572A as control) by Human Antibody Capture (monoclonal mouse anti-human IgG antibody immobilised on a CM5 chip by amine coupling, GE Healthcare) with and without human IgG1 Fc fragment (Bethyl Laboratories, UK) in the control flow cell. […]

[4] = in the presence of Fc-domain 11^AB5-RHH (IGF2-TRAP)

Molecule | Kinetics koff (IGF2 [3]; Table 1, 25° C., HBS-EP pH 7.4) [s⁻¹] | Kinetics kon (IGF2 [3]; Table 1, 25° C., HBS-EP pH 7.4) [M⁻¹ s⁻¹] | Kinetics koff (IGF2 [3]; Table 3, 25° C., HBS-EP pH 7.4) [s⁻¹] | Kinetics kon (IGF2 [3]; Table 3, 25° C., HBS-EP pH 7.4) [M⁻¹ s⁻¹] | Kinetics koff (IGF2 [3]; Table 4, MES-EP pH 6.5) [s⁻¹] | Kinetics kon (IGF2 [3]; Table 4, MES-EP pH 6.5) [M⁻¹ s⁻¹] | also measured
COc1ccc(-c2cc3c(C)nc(N)nc3n([C@H]3CC[C@H](OCCO)CC3)c2=O)cn1 [PF-04691502, 2-amino-8-[trans-4-(2-hydroxyethoxy)cyclohexyl]-6-(6-methoxypyridin-3-yl)-4-methylpyrido-[2,3-d]pyrimidin-7(8H)-one] | – | – | – | – | – | – | IC50 ([1]; drug alone): 420 nM; IC50 [1, 4]: 92 nM
CS(=O)(=O)N1CCN(Cc2cc3nc(-c4cccc5[nH]ncc45)nc(N4CCOCC4)c3s2)CC1 [Pictilisib, 4-[2-(1H-indazol-4-yl)-6-[(4-methylsulfonylpiperazin-1-yl)methyl]thieno[3,2-d]pyrimidin-4-yl]morpholine] | – | – | – | – | – | – | IC50 ([1]; drug alone): 1100 nM; IC50 [1, 4]: 140 nM
B1 | 0.044 | 2.76e+06 | 0.044 | 2.76e+06 | 0.0381 | 3.43e+06 | Kd (IGF2 [2]): 15 nM; Kinetics koff (IGF2 [3]; Table 2): 0.044 s⁻¹; Kinetics kon (IGF2 [3]; Table 2): 2.76e+06 M⁻¹ s⁻¹
B2 | 0.23 | 5e+06 | – | – | 0.1441 | 2.68e+06 | Kd (IGF2 [2]): 40 to 60 nM; Kinetics koff (IGF2 [3]; Table 2): 0.23 s⁻¹; Kinetics kon (IGF2 [3]; Table 2): 5e+06 M⁻¹ s⁻¹; ΔH of IGF2 interaction (IGF2 [3]; van't Hoff, 10° C. to 30° C.): < 0; −TΔS of IGF2 interaction (IGF2 [3]; van't Hoff, 10° C. to 30° C.): > 0
B3 | 0.0208 | 4.21e+06 | 0.0208 | 4.21e+06 | 0.0180 | 4.17e+06 | IGF2 specificity with respect to IGF1 (IGF1): retained IGF2 specificity
B4 | – | – | 0.0058 | 6.67e+06 | 0.0051 | 7.54e+06 | –
B5 | – | – | 0.0115 | 1.12e+07 | – | – | –
B6 | – | – | 0.005 | – | – | – | –
B7 | – | – | 0.008 | – | – | – | –
